Reference: patent US20080220446A1 (published 2008)
Values belong to the binder of their own block, whether it stands above or below them. Ends that are not written are not given here.

Tests used:
[1] = molecular target: T1, recombinant human β2-glycoprotein I (insect cells) (human, UniProt P02749 20-345); test: SPR (Biacore), tPA F immobilized on CM5 chip
T1 construct: also called recombinant β2GPI; rβ2GPI
T1 sequence (looked up): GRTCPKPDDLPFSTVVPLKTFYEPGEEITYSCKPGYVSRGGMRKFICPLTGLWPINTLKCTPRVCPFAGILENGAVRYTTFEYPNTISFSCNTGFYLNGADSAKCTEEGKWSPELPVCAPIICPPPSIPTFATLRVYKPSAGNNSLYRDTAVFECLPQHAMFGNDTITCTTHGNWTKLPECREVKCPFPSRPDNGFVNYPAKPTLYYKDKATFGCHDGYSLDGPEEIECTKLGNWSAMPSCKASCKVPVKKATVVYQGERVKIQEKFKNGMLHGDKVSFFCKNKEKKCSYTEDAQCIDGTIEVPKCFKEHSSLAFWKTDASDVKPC
Description: (§1) A standardized amine coupling procedure was used to couple proteins with F domains to a CM5 chip (Biacore AB, Uppsala, Sweden). First, the dextran surface of the chips was activated by a 35 μl injection with a 1:1 mixture of 0.1 M N-hydroxysuccinimide (NHS) and 0.4 M N-ethyl-N′-(dimethylaminopropyl)carbodiimide (EDC) at a flow rate of 5 μl min.⁻¹. Then, the proteins were covalently coupled to the activated dextran surface. Remaining activated groups in each of the four flow channels were blocked by injection of 35 μl of 1 M ethanolamine hydrochloride pH 8.5. EDC, NHS and ethanolamine hydrochloride were obtained from Biacore. […] The flow rate was 10 μl min.⁻¹, the injection time was 120″. The running buffer during immobilization was 10 mM HEPES pH 7.4, 140 mM NaCl. Buffers were filtrated on a 0.22 μm filter (white GSWP, 47 mm, Millipore) and degassed at room temperature. For subsequent binding experiments, the running buffer was 10 mM HEPES pH 7.4, 140 mM NaCl, 1.5 mM CaCl₂, 10 mM εACA, 0.005% Tween-20. […] After each injection of protein, the chip was regenerated with 0.1 M H₃PO₄ pH 1.0.

[2] = molecular target: T1, recombinant human β2-glycoprotein I …; test: SPR (Biacore), HGFA F immobilized on CM5 chip
Description: as §1

abciximab (ReoPro) [3] = test: ELISA, therapeutic coated on Nunc Immobilizer plate, concentration series of tPA, one-site binding fit
Chain of abciximab (ReoPro) (VH, as listed by the source, chain 1 of 2): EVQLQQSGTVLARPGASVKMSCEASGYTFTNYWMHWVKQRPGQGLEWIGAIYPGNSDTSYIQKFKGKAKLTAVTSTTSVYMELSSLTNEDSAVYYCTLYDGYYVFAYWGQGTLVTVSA
Chain of abciximab (ReoPro) (VL, as listed by the source, chain 2 of 2): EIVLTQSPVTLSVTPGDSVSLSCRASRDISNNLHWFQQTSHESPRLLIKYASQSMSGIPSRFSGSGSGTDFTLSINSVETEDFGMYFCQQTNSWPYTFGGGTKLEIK
Description: (§2) Plates were washed twice with Tris buffered saline pH 7.2 containing 0.1% Tween20 (TBST) and blocked with PBS containing 1% Tween20 for 1 hour at room temperature. […] Plates were washed five times with TBST and incubated with peroxidase labeled anti-mouse immunoglobulins (RAMPO; DAKOCytomation, Glostrup, Denmark) diluted 1:3000 in PBST for 30 minutes at room temperature. Plates were washed five times with PBS 0.1% Tween20, and stained with 100 μL/well of tetramethyl-benzidine (TMB) substrate (Biosource Europe, Nivelles, Belgium). The reaction was terminated with 50 μL/well of 2 M H₂SO₄ and substrate conversion was read at 450 nm on a Spectramax340 microplate reader. Curves were fitted with a one-site binding model (GraphPad Prism version 4.02 for Windows, Graphpad Software, Calif., USA) from which Kd and Bmax were determined.

[4] = molecular target: T2, rapid acting human insulin analogue (NovoRapid Flexpen) (human, UniProt P01308 90-110; P01308 25-54); test: as above
T2 construct: also called Insulin Aspart
T2 sequence (P01308 90-110 limits assumed, chain 1 of 2): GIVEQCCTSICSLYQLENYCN
T2 sequence (P01308 other isoform, or with tags, fused parts or gaps limits assumed, chain 2 of 2): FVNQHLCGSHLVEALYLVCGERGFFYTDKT
Description: as §2

[5] = molecular target: T3, human albumin (Cealb, Sanquin-CLB) (human, UniProt P02768 25-609); test: as above
T3 construct: also called CeaIb
Description: as §2

[6] = molecular target: T4, recombinant human Zn2+-chelated insulin (Monotard) (human, UniProt P01308 90-110; P01308 25-54); test: as above
T4 construct: also called zinc-insulin; zinc-chelated insulin
T4 sequence (P01308 25-54 limits assumed, chain 2 of 2): as the sequence (P01308 other isoform, or with tags, fused parts or gaps limits assumed, chain 2 of 2) above, with D28P counted along it
Description: as §2

[7] = molecular target: T5, human coagulation factor VIII (FVIII) (Aafact) (human, UniProt P00451 20-2351); test: as above
T5 chain 1: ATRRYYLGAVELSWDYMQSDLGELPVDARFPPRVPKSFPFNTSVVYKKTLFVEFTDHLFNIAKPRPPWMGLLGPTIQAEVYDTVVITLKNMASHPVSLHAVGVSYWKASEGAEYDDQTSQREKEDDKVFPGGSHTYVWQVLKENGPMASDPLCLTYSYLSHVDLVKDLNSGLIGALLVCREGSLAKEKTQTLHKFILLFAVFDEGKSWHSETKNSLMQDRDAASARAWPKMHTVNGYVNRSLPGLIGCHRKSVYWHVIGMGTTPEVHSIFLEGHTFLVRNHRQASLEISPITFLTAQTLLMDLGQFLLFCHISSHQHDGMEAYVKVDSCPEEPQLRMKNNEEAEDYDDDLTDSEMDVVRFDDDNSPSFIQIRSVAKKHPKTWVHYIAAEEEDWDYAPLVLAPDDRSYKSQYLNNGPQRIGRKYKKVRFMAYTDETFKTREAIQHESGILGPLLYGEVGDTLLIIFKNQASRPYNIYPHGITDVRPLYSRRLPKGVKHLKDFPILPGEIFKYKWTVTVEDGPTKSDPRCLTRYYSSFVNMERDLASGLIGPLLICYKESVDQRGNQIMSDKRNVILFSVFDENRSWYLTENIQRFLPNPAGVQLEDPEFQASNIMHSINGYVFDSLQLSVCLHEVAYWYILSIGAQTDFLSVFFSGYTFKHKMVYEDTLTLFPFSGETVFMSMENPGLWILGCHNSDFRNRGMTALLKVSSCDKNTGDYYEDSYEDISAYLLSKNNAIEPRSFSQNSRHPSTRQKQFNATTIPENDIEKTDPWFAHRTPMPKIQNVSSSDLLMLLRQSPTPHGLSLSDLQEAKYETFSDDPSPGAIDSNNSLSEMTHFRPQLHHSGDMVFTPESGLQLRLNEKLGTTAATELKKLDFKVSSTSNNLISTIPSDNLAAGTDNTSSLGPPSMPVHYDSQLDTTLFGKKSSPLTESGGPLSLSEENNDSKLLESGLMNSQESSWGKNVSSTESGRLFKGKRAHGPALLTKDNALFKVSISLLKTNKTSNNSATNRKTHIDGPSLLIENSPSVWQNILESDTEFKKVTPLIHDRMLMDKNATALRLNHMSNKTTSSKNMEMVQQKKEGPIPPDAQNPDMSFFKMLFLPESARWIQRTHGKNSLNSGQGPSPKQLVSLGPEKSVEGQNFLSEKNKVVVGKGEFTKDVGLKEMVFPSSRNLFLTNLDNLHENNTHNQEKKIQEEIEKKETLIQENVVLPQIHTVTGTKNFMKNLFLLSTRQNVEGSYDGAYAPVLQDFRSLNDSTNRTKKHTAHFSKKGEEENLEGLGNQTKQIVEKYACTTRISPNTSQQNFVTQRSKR
T5 chain 2: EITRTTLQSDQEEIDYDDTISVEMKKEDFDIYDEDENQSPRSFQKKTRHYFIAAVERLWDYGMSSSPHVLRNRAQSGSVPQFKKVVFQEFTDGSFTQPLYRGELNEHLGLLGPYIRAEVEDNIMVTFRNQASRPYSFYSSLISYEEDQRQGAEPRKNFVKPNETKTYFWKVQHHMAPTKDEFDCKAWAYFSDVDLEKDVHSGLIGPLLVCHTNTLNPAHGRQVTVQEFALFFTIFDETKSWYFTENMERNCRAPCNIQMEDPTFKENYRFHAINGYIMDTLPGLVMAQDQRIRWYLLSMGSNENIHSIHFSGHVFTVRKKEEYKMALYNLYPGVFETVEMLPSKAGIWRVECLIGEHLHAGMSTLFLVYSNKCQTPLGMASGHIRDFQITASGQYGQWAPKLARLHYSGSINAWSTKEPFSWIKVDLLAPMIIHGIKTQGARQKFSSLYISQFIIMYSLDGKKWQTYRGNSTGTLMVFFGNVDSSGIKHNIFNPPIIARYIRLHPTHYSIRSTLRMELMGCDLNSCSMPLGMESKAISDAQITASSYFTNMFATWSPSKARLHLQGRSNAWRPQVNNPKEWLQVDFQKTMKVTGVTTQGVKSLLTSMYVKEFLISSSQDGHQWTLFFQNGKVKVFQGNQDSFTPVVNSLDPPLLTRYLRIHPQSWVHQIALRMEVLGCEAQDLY
Description: as §2

abciximab (ReoPro) [8] = test: cell-based or functional assay
[9] = molecular target: T2, rapid acting human insulin analogue …; test: cell-based or functional assay
[10] = molecular target: Etanercept (Enbrel), native; test: cell-based or functional assay
[11] = molecular target: T4, recombinant human Zn2+-chelated insulin …; test: cell-based or functional assay
[12] = molecular target: Infliximab (Remicade), human-murine chimeric monoclonal antibody; test: cell-based or functional assay

binding result [1]: no binding (tested: 0-300 nM)
B1: chemically synthesized tPA F domain (other, human)
chain: SYQVICRDEKTQMIYQQHQSWLRPVLRSNRVEYCWCNSGRAQCHSVPVKSK
modifications: ends and bridges not checked; also: C-terminal Lys acetylated or biotinylated, not given here which
notes: domain: F domain; Made by native chemical ligation; immobilized on the second Biacore chip

binding result [2]: no binding (tested: 0-300 nM)
B2: chemically synthesized HGFA F domain (other)
chain: EKCFDETRYEYLEGGDRWARVRQGHVEQCECFGGRTWCEGTK
modifications: carboxy-terminal acetylated lysine residue
notes: domain: F domain; Immobilized on the second Biacore chip

Bmax (abciximab (ReoPro) [3]): 0.533 OD450 nm
Bmax [4]: 3.62 OD450 nm
Bmax [5]: 1.23 OD450 nm
Bmax [6]: 0.756 OD450 nm
Bmax [7]: 0.54 OD450 nm
tPA activation, Max. Activation (%) (tPA-dependent plasminogen activation, % of standardized positive control) (abciximab (ReoPro) [8]): 0%
tPA activation, Max. Activation (%) (tPA-dependent plasminogen activation, % of standardized positive control) [9]: 70.9%
tPA activation, Max. Activation (%) (tPA-dependent plasminogen activation, % of standardized positive control) [10]: 0%
tPA activation, Max. Activation (%) (tPA-dependent plasminogen activation, % of standardized positive control) [11]: 17.4%
tPA activation, Max. Activation (%) (tPA-dependent plasminogen activation, % of standardized positive control) [12]: 0%
B3: tissue-type plasminogen activator (tPA) (enzyme, human, UniProt P00750 36-562, looked up)
chain: SYQVICRDEKTQMIYQQHQSWLRPVLRSNRVEYCWCNSGRAQCHSVPVKSCSEPRCFNGGTCQQALYFSDFVCQCPEGFAGKCCEIDTRATCYEDQGISYRGTWSTAESGAECTNWNSSALAQKPYSGRRPDAIRLGLGNHNYCRNPDRDSKPWCYVFKAGKYSSEFCSTPACSEGNSDCYFGNGSAYRGTHSLTESGASCLPWNSMILIGKVYTAQNPSAQALGLGKHNYCRNPDGDAKPWCHVLKNRRLTWEYCDVPSCSTCGLRQYSQPQFRIKGGLFADIASHPWQAAIFAKHRRSPGERFLCGGILISSCWILSAAHCFQERFPPHHLTVILGRTYRVVPGEEEQKFEVEKYIVHKEFDDDTYDNDIALLQLKSDSSRCAQESSVVRTVCLPPADLQLPDWTECELSGYGKHEALSPFYSERLKEAHVRLYPSSRCTSQHLLNRTVTDNMLCAGDTRSGGPQANLHDACQGDSGGPLVCLNDGRMTLVGIISWGLGCGQKDVPGVYTKVTNYLDWIRDNMRP
notes: Full-length commercial tPA; also called Actilyse; Alteplase
